Measurements as given in publication PMC12421958, “Dual regulatory role of cyclic di-GMP via the DgcY/HhmR complex in salt response of Halomonas hydrothermalis Y2” (mBio, 2025).
Blank lines part the entries; values can stand above or below the molecule they belong to.

Legend:
[1] = target: T1, DgcY222–406; test: microscale thermophoresis (MST); assay type: binding, Vreelandella hydrothermalis; settings: 25 °C, PBS-T; without HhmR; His-tag protein labelled with RED-tris-NTA
T1 construct: gene dgcY; GGDEF domain 222-406 only, TM and helical (HD) regions removed; pET24a, E. coli BL21(DE3), His-tag

[2] = target: T2, DgcY202–406; test: microscale thermophoresis (MST); assay type: binding, Vreelandella hydrothermalis; settings: 25 °C, PBS-T; without HhmR; His-tag protein labelled with RED-tris-NTA
T2 construct: gene dgcY; intracellular fragment 202-406 (helical domain 203-221 + GGDEF 222-406) of 406-residue protein, TM domain removed; pET24a, E. coli BL21(DE3), His-tag, labelled by RED-tris-NTA for MST

[3] = target: DgcY_(202–406) (Halomonas hydrothermalis Y2); test: MST; as a3, buffer containing 2.5 µM c-di-GMP
[4] = target: DgcY_(202–406) (Halomonas hydrothermalis Y2)
[5] = target: DgcY_(202–406) (Halomonas hydrothermalis Y2); test: MST; as a3, buffer containing 15 µM c-di-GMP
[6] = target: DgcY_(202–406) (Halomonas hydrothermalis Y2); test: MST; as a3, buffer containing 0.5 µM c-di-GMP
[7] = target: DgcY_(202–406) (Halomonas hydrothermalis Y2); remark: listed apart in the source
[8] = target: DgcY_(202–406) (Halomonas hydrothermalis Y2); test: MST; His-tagged protein labelled with Red-tris-NTA, ligand in twofold serial dilutions, PBS-T buffer, 25°C; no c-di-GMP

Molecule: Nc1nc2c(ncn2[C@@H]2O[C@@H]3COP(=O)(O)O[C@H]4[C@@H](O)[C@H](n5cnc6c(=O)[nH]c(N)nc65)O[C@@H]4COP(=O)(O)O[C@H]3[C@H]2O)c(=O)[nH]1 [c-di-GMP]
Kd [1]: 1170 µM
Kd [2]: 53.2 µM

Kd [3]: 0.0905 µM
c-di-GMP made by 10 µM DgcY202-406 with 15 µM HhmR, HPLC, 37°C, 2 to 8 h (with HhmR 9.47 µM at 3 h and 25.50 µM at 8 h; without HhmR 12.41 and 31.38 µM) [4]: 25.5 µM
Kd [5]: 0.0341 µM
Kd [6]: 0.105 µM
c-di-GMP made by DgcY202-406 with HhmR and 15 µM added c-di-GMP, HPLC, 37°C, 8 h (38 µM without added c-di-GMP) [7]: 30 µM
Kd [8]: 8.96 µM
Molecule: HhmR (natural protein)

Kd [8]: 0.053 µM
Molecule: HhmR_(90–305) (domain or fragment)

Kd [8]: 0.571 µM
Molecule: HhmR_(90–305)^Q240D (domain or fragment)
